Source: patent US11732048B2, “Anti-axl antagonistic antibodies” (BERGEN TEKNOLOGIOVERFØRING AS, priority 2016, dated 2023)
Entries after “also recorded” stand apart in the source; their conditions may differ.

Assays:
[1] = tested on: Axl-positive cells (MDA-MB-231); test: Flow cytometry binding to Axl-positive cells; parameters: species or system human
Method: Different concentrations of chimeric antibody was tested in flow cytometry for binding to triple-negative breast cancer cell line MDA-MB-231. The bound chimeric antibody was detected with APC-conjugated donkey F(ab′)2 fragments specific for either mouse IgG (H+L), 1:500 dilution, or human IgG (H+L), 1:300 dilution, respectively (both from Jackson ImmunoResearch). The cell staining was measured using Accuri C6 flow cytometer (BD Biosciences). MFI, geometric mean fluorescence intensity.
For flow cytometry, the adherent cells in culture were washed with PBS, detached by trypsin (0.25%) treatment for 1 min and hitting culture dish for full detachment. Trypsin was quenched by adding into the tissue flask the complete medium followed by washing the cells with PBS. […]
The purified chimeric antibodies (>95% purity) were analysed for binding to Axl-positive breast cancer cell line MDA-MB-231 in flow cytometry. […] The cell-bound antibodies were detected with APC-conjugated donkey anti-human or anti-mouse, respectively, IgG (H+L) F(ab′)2 fragments (Jackson ImmunoResearch). […]
For flow cytometry, the adherent cells in culture were washed with PBS, detached by treatment with trypsin (0.25%) for 1 min. […] The cell-bound antibodies were detected with APC-conjugated donkey anti-human IgG (H+L) F(ab′)2 fragments (Jackson ImmunoResearch Laboratories #709-136-149, 1:400 dilution). […]

[2] = target: T1, human Axl (rhAxl-Fc chimera) (Homo sapiens, UniProt P30530); test: Biacore binding analysis on immobilised human Axl; settings: 10 μg/mL in HBS-EP, 25° C.
T1 construct: Soluble recombinant antigens corresponding to the extracellular domains of members of the human TAM receptor family; Fc; purchased R&D Systems 154-AL
Method: All binding experiments were performed using Biacore 3000 instrument (GE Healthcare) at 25° C. Soluble recombinant antigens corresponding to the extracellular domains of members of the human TAM receptor family, Axl (rhAxl-Fc chimera; R&D Systems, Cat. no. 154-AL), Mer (rhMer-Fc chimera; R&D Systems, Cat. no. 891-MR) and Tyro3 (rhTyro3/Dtk-Fc chimera; R&D Systems, Cat. no. 859-DK) were immobilized on the surface of CM5 sensor chip using amine coupling at the surface density of 393.0, 303.6 and 364.0 resonance units (RU), respectively. The Biacore run was performed in an automatic mode using Binding analysis wizard. Samples containing MAb 10G5 at concentration 10 μg/mL in HBS-EP buffer (GE Healthcare) were injected over the surfaces with immobilized antigens at flow rate of 30 μL/min for 3 min (association) followed by 5 min dissociation.
The binding experiments were performed using Biacore 3000 instrument (GE Healthcare) at 25° C. The soluble recombinant antigens corresponding to human Axl (rhAxl-Fc chimera; R&D Systems, Cat. no. 154-AL), mouse Axl (rmAxl-Fc chimera; R&D Systems, R&D Systems; Cat. no. 854-AX) and human Tyro3 (rhTyro3/Dtk-Fc chimera; R&D Systems, Cat. no. 859-DK) were immobilized on the surface of CM5 sensor chip using amine coupling at the surface density of 1,308.0, 2,115.9 and 1,429.0 RU, respectively. The Biacore runs were performed in an automatic mode using Binding analysis wizard.
The sample containing MAb 10G5 or recombinant mouse (rm) Axl-ligand Gas6 (R&D Systems, Cat. no. 986-GS/CF) at concentration 10 μg/mL in HBS-EP buffer (GE Healthcare) was injected over the surfaces with immobilized antigens at flow rate of 30 μL/min for 3 min (association) followed by 5 min dissociation.
The sequence of Axl receptor from cynomolgus monkey (Macaca fascicularis; SEQ ID NO: 27) was retrieved from WO2009062690A1. Based on the sequence, recombinant extracellular domain of cyno-Axl was generated by transient expression in CHO cells as a fusion protein with human Fc. The recombinant cyno-Axl-Fc was purified to homogeneity using Protein A-Sepharose (GE Healthcare). The binding experiments were performed using Biacore 3000 instrument (GE Healthcare) at 25° C. The soluble recombinant antigens corresponding to human Axl (rhAxl-Fc chimera; R&D Systems, Cat. no. 154-AL) and cyno-Axl were immobilized on the surface of CM5 sensor chip using amine coupling at the surface density of 775 and 880 RU, respectively. The Biacore runs were performed in an automatic mode using Binding analysis wizard.
The sample containing MAb 10G5 or human Axl-specific MAb 5F11 (control) at concentration 10 μg/mL in HBS-EP buffer (GE Healthcare) was injected over the surfaces with immobilized antigens at flow rate of 30 μL/min for 3 min (association) followed by 5 min dissociation. […]

Row | Molecule | Binding to Axl+ cells in flow cytometry (clone selection) ([1]; Example 1) | Binding to human Axl [2] | Binding to Axl-positive MDA-MB-231 cells in flow cytometry ([1]; titration of antibody, APC-conjugated secondary)
1 | murine 10G5: mouse monoclonal anti-human Axl antibody from hybridoma WR-10G5-E5; VH SEQ ID NO: 28, VL SEQ ID NO: 29 (antibody, listed as Mus musculus, V domains shown, (1)..(118) Mus musculus 10G5 VH domain; (1)..(112) Mus musculus 10G5 VL domain) VH: QVQLQQSGAELVRPGASVKLSCKASGYSFTDFYINWVRQRPGQGLEWIARIFPGGDNTYYNEKFKGKATLTAEESSSTAYIQLSSLTSEDSAVYFCARRGLYYAMDYWGQGISVTVSS VL: DVLMTQTPLSLPVSLGDQASISCRSSQSLVHSNGIPYLHWYLQKPGQSPKLLIYRVSNRFSGVPDRFSGSGSGTDFTLKISRVEAEDLGVYFCSQGTHVPPTFGGGTKLEIK | specific binding | bind strongly; also recorded: specific binding; also recorded: strong and specific interaction | 
2 | c10G5: chimeric (mouse variable/human constant) IgG1 antibody with the 10G5 VH and VL (antibody, V domains shown) VH: QVQLQQSGAELVRPGASVKLSCKASGYSFTDFYINWVRQRPGQGLEWIARIFPGGDNTYYNEKFKGKATLTAEESSSTAYIQLSSLTSEDSAVYFCARRGLYYAMDYWGQGISVTVSS VL: DVLMTQTPLSLPVSLGDQASISCRSSQSLVHSNGIPYLHWYLQKPGQSPKLLIYRVSNRFSGVPDRFSGSGSGTDFTLKISRVEAEDLGVYFCSQGTHVPPTFGGGTKLEIK |  | binds immobilized Axl with profiles very similar to the binding profiles of the corresponding mouse antibody | Dose-dependent binding
